For assay [1], the target named is T1, HIV-1 envelope glycoprotein gp120 (IIIB) (HIV-1 IIIB (HXB2 clone entry), UniProt P04578). Put plainly: SPR; gp120 (IIIB) coupled covalently to a CM5 chip; D7 or D7 mutants at 25 and 100 nM flowed over; Biacore X; 10 mM HEPES pH 7.5, 100 mM NaCl, 0.05% P20; 30 µl/min; association 3 min, dissociation 15 min; simultaneous fit of association and dissociation. The settings on record: both partners purified.

The target of assay [2] is T1, HIV-1 envelope glycoprotein gp120 (IIIB). Put plainly: cell-based or functional assay.

B1: llama heavy chain antibody fragment VHH D7, wild type (VHH)
VHH: AVQLVESGGGLAQAGGSLRLSCTVSGRTSSSHDMGWFRQAPGKEREFVAAISWSGGTTNYADSVKGRFAISKDNAKNAVSLQMNSLKPEDTAVYYCAAKWRPLRYSDNPSNSDYNYWGQGTQVTVSS
notes: PDB 2xa3 holds D7 with the framework changes Val5Gln, Ala11Val, Ala61Val, Ala68Asp and Ser79Tyr against wild type D7
As to B1, in assay [1], the dissociation constant (Kd) was determined as 2.91 ± 0.87 nM, the off-rate constant (koff) was determined as 0.000551 s⁻¹ and the kon was 155000 M⁻¹ s⁻¹. In assay [2], the “IC50 of neutralisation of HIV-1 IIIB in TZM-bl cells, Average” value (from here on “IC50 of neutralisation … Average”) came to 0.054 µg/mL; the “IC50 of neutralisation of HIV-1 IIIB in TZM-bl cells, Exp1” value (shortened to “IC50 of neutralisation … Exp1”) was determined as 0.066 µg/mL; the “IC50 of neutralisation of HIV-1 IIIB in TZM-bl cells, Exp2” value (“IC50 of neutralisation … Exp2” for short) worked out at 0.041 µg/mL.

B2: VHH D7 Asn100D→Ala (VHH)
VHH: AVQLVESGGGLAQAGGSLRLSCTVSGRTSSSHDMGWFRQAPGKEREFVAAISWSGGTTNYADSVKGRFAISKDNAKNAVSLQMNSLKPEDTAVYYCAAKWRPLRYSDAPSNSDYNYWGQGTQVTVSS
notes: PDB 2xa3 holds D7 with five framework changes) with the stated CDR3 mutation; Chothia numbering (100D is an insertion position)
Consider B2, for which, in assay [1], binding was put at a Kd of 0.51 ± 0.02 nM, the off-rate constant (koff) is 0.000128 s⁻¹ and the kon worked out at 252000 M⁻¹ s⁻¹.

B3: VHH D7 Asp100C→Ala (VHH)
VHH: AVQLVESGGGLAQAGGSLRLSCTVSGRTSSSHDMGWFRQAPGKEREFVAAISWSGGTTNYADSVKGRFAISKDNAKNAVSLQMNSLKPEDTAVYYCAAKWRPLRYSANPSNSDYNYWGQGTQVTVSS
notes: PDB 2xa3 holds D7 with five framework changes) with the stated CDR3 mutation; Chothia numbering (100C is an insertion position)
In assay [1], B3 yielded a Kd of 0.84 ± 0.12 nM, a dissociation rate constant (koff) of 0.000199 s⁻¹ and a kon of 236000 M⁻¹ s⁻¹. In assay [2], the “IC50 of neutralisation … Average” value amounted to 0.027 µg/mL; the “IC50 of neutralisation … Exp1” value was 0.4 µg/mL; the “IC50 of neutralisation … Exp2” value was determined as 0.014 µg/mL.

B4: VHH D7 Lys95→Ser (VHH)
VHH: AVQLVESGGGLAQAGGSLRLSCTVSGRTSSSHDMGWFRQAPGKEREFVAAISWSGGTTNYADSVKGRFAISKDNAKNAVSLQMNSLKPEDTAVYYCAASWRPLRYSDNPSNSDYNYWGQGTQVTVSS
notes: PDB 2xa3 holds D7 with five framework changes) with the stated CDR3 mutation; Chothia numbering
In assay [1], B4 yielded an equilibrium dissociation constant (Kd) of 377 ± 276 nM, an off-rate constant (koff) of 0.00236 s⁻¹ and a kon of 13000 M⁻¹ s⁻¹. In assay [2], the “IC50 of neutralisation … Average” value came out at 3 µg/mL; the “IC50 of neutralisation … Exp1” value was determined as 3.43 µg/mL; the “IC50 of neutralisation … Exp2” value amounted to 2.64 µg/mL.

B5: VHH D7 Leu99→Ala (VHH)
VHH: AVQLVESGGGLAQAGGSLRLSCTVSGRTSSSHDMGWFRQAPGKEREFVAAISWSGGTTNYADSVKGRFAISKDNAKNAVSLQMNSLKPEDTAVYYCAAKWRPARYSDNPSNSDYNYWGQGTQVTVSS
notes: as for B4
In assay [1], B5 showed a Kd of 69.9 ± 14.2 nM, a dissociation rate constant (koff) of 0.005 s⁻¹ and an on-rate constant (kon) of 14000 M⁻¹ s⁻¹. Further, in assay [2], the “IC50 of neutralisation … Average” value was found to be 0.69 µg/mL; the “IC50 of neutralisation … Exp1” value was determined as 0.817 µg/mL; the “IC50 of neutralisation … Exp2” value was 0.56 µg/mL.

B6: VHH D7 double mutant Asn101→Tyr/Tyr102→Asp (VHH)
VHH: AVQLVESGGGLAQAGGSLRLSCTVSGRTSSSHDMGWFRQAPGKEREFVAAISWSGGTTNYADSVKGRFAISKDNAKNAVSLQMNSLKPEDTAVYYCAAKWRPLRYSDNPSNSDYYDWGQGTQVTVSS
notes: PDB 2xa3 holds D7 with five framework changes) with the stated CDR3 mutations; Chothia numbering; also called double mutant Asn^101Tyr^102
As for B6, in assay [1], the Kd was found to be 0.18 ± 0.15 nM, the koff worked out at 3.3e-05 s⁻¹ and the kon was 187000 M⁻¹ s⁻¹. Besides, in assay [2], the “IC50 of neutralisation … Average” value came to 0.011 µg/mL; the “IC50 of neutralisation … Exp1” value amounted to 0.017 µg/mL; the “IC50 of neutralisation … Exp2” value is 0.005 µg/mL.

B7: VHH D7 Trp96→Ala (VHH)
VHH: AVQLVESGGGLAQAGGSLRLSCTVSGRTSSSHDMGWFRQAPGKEREFVAAISWSGGTTNYADSVKGRFAISKDNAKNAVSLQMNSLKPEDTAVYYCAAKARPLRYSDNPSNSDYNYWGQGTQVTVSS
notes: as for B4
In assay [1], B7 yielded a Kd of 27.9 ± 20.5 nM, a koff of 0.00313 s⁻¹ and an on-rate constant (kon) of 146000 M⁻¹ s⁻¹. Moreover, in assay [2], the “IC50 of neutralisation … Average” value is 2.6 µg/mL; the “IC50 of neutralisation … Exp1” value was found to be 2.72 µg/mL; the “IC50 of neutralisation … Exp2” value was 2.43 µg/mL.

B8: VHH D7 Tyr100A→Ala (VHH)
VHH: AVQLVESGGGLAQAGGSLRLSCTVSGRTSSSHDMGWFRQAPGKEREFVAAISWSGGTTNYADSVKGRFAISKDNAKNAVSLQMNSLKPEDTAVYYCAAKWRPLRASDNPSNSDYNYWGQGTQVTVSS
notes: PDB 2xa3 holds D7 with five framework changes) with the stated CDR3 mutation; Chothia numbering (100A is an insertion position)
For the molecule B8, in assay [1], binding was characterised by a dissociation constant (Kd) of 1.55 ± 0.07 nM, the koff amounted to 0.000359 s⁻¹ and the kon was found to be 233000 M⁻¹ s⁻¹. Also, in assay [2], the “IC50 of neutralisation … Average” value was found to be 0.023 µg/mL; the “IC50 of neutralisation … Exp1” value stood at 0.028 µg/mL; the “IC50 of neutralisation … Exp2” value worked out at 0.018 µg/mL.

The Kd is the constant that tells how readily two partners part at equilibrium. Low readings indicate higher affinity, high ones lower affinity. As usually defined, the koff is a measure of how fast the partners let go of each other. The kon is a measure of how fast the partners come together.
